Test results as given in patent publication US20220372154A1 (APEXIGEN, published 2022).

Experiments:
soluble mouse TNFR2 = target: T1, soluble mouse TNFR2 (mouse, UniProt P25119 23-258, limits assumed); assay: binding screen on soluble mouse TNFR2 (mouse cross-reactivity)
T1 sequence (looked up): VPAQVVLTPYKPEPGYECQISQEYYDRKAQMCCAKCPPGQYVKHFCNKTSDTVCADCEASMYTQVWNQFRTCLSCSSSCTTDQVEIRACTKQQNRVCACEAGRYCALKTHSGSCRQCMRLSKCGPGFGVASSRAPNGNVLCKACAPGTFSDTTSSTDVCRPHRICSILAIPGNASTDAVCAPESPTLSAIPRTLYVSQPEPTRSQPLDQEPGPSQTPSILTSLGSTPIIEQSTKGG

[1] = target: T2, human TNFR2 expressed on cells (human, UniProt P20333 23-461); assay: flow cytometry on CHO cells expressing human TNFR2
T2 construct: whole, on cells; also called hTNFR2 (cell); CHO-TNFR2
T2 sequence (looked up): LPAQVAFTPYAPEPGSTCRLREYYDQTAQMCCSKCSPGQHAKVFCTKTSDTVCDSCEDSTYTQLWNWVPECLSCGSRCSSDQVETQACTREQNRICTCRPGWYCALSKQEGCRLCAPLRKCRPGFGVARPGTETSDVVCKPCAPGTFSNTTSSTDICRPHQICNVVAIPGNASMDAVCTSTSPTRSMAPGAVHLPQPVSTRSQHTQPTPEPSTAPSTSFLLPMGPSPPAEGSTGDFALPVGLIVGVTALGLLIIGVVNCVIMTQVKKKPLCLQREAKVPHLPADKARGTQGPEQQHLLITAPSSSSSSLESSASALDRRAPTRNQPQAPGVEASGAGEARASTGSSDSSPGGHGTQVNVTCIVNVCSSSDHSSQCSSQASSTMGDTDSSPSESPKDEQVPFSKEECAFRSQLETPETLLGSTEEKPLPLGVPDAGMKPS
In short: (§1)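 TNFR2-His ELISAs: human or cynomolgus protein coated at 1 μg/mL overnight at 4 °C, BSA-blocked, antibodies 1 h RT, anti-human HRP, TMB 3–5 min. Flow: 200,000 human TNFR2-CHO cells, antibody 1 h, anti-human IgG BV421 20 min. Blocking ELISA: TNFR-Fc coated 1 ug/mL, antibodies 1 h RT, TMB 5–7 min.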

[2] = target: T3, cynomolgus TNFR2-His tagged protein (cynomolgus, UniProt A0A2K5VET2 132-366); assay: ELISA on coated cynomolgus TNFR2-His
T3 construct: also called Cyno TNFR2; cynomolgus TNFR2 protein; not shown: His tag
T3 sequence: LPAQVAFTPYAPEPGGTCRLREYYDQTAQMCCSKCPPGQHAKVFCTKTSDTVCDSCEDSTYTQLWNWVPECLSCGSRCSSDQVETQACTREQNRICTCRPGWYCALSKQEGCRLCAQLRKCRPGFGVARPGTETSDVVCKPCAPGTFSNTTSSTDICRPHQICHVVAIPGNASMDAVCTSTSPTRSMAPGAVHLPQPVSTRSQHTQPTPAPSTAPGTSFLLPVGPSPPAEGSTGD
In short: as §1

TNFR-Fc [3] = target: T4, TNFR-Fc (UniProt P20333 23-257, limits assumed); assay: TNF-α blocking ELISA on coated TNFR-Fc
T4 construct: Printed only as TNFR-Fc; not shown: Fc part
T4 sequence (looked up): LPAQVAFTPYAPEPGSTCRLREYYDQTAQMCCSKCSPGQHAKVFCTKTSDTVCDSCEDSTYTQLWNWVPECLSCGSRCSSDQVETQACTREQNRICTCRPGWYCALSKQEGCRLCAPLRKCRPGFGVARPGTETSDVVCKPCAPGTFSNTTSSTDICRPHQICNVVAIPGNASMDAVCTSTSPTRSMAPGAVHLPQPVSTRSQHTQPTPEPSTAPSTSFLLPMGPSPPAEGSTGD
In short: as §1

[4] = target: T5, human TNFR2-His tagged protein (soluble) (human, UniProt P20333 23-257); assay: ELISA on coated human TNFR2-His
T5 construct: also called hTNFR2 (soluble); soluble TNFR2-His; not shown: His tag
T5 sequence (looked up): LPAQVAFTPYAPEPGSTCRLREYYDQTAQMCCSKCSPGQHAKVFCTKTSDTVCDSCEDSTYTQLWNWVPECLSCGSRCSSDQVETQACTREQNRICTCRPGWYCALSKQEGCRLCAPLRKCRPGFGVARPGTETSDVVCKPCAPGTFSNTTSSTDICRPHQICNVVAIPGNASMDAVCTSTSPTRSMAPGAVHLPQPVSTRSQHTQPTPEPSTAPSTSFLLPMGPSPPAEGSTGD
In short: as §1

[5] = target: T6, TNFR2 PLAD or CRD1 peptide (aa 17-54 of mature TNFR2) (human); assay: peptide-binding ELISA (potential peptide bin)
T6 construct: Range counted on mature TNFR2
T6 peptide: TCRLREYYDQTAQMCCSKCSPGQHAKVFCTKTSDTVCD

[6] = target: T2, human TNFR2 expressed on cells; assay: flow cytometry, cell-expressed human TNFR2
[7] = target: T2, human TNFR2 expressed on cells; assay: blocking of biotinylated TNF-α on TNFR2-CHO cells, flow cytometry
Description: TNFR2-overexpressing CHO cells were plated at 100,000 cells per well. Cells were incubated with the indicated antibodies for 30 minutes on ice. […] Cells were analyzed using Cytoflex or MACSQuant flow cytometer. Assay was repeated twice.

[8] = target: T3, cynomolgus TNFR2-His tagged protein; assay: ELISA, cynomolgus TNFR2
[9] = target: T2, human TNFR2 expressed on cells; assay: cell binding on TNFR2-overexpressing (OE) cells
[10] = target: T5, human TNFR2-His tagged protein (soluble); assay: ELISA, soluble human TNFR2
TNFR-Fc [11] = target: T4, TNFR-Fc; assay: TNF-α blocking ELISA (soluble)
[12] = target: T7, human TNFR1-His tagged protein (human, UniProt P19438 30-211, limits assumed); assay: ELISA on coated TNFR1-His (1 ug/mL), OD 450 nm
T7 construct: also called soluble human TNFR1; not shown: His tag
T7 sequence (looked up): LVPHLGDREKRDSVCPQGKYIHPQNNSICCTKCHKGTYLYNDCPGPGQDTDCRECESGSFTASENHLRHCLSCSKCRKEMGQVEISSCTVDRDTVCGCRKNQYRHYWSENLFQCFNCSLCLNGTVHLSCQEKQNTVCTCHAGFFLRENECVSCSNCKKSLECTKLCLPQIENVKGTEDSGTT
Description: TNFR1-His tagged protein was coated on ELISA plates at 1 μg/mL at 4° C. overnight. Plates were washed, blocked, and antibodies were added at indicated concentrations for 1 hour at RT. Antibodies were washed and detected with anti-human IgG HRP for 1 hour. Assay was developed using TMB substrate for 10 minutes.

B1: chimeric antibody clone 6 (rab600_23_6) (antibody, V domains shown)
VH: QEQLKESGGRLVTPGTPLTLTCTASGFSLSSYYVSWVRQAPGKGLEWIGIIHSDGSIYYATWAKGLFTISRTSTTVDLKATSLTTEDTATYFCVRGYPGYYTSTFNRLDLWGQGTLVTVSS
VL: AYDMTQTPASVEVAVGGTVTIKCQASQTISNELSWYQQKSGQPPKLLIYRASTLASGVPSRFSGSGSGTEFTLTISGVECDDAATYYCQQGYTTNNVDNLFGGGTEVVVK
- binding result (soluble mouse TNFR2): no binding
- EC50 [1]: 0.277 nM
- EC50 [2]: 0.104 nM
- IC50 (TNFR-Fc [3]): 5.63 nM
- EC50 [4]: 0.147 nM
- binding result [5]: binds

B2: chimeric antibody clone 81 (rab600_23_81) (antibody, V domains shown)
VH: QSLEESGGRLVTPGTPLTLTCTASGFSLSNYYVSWVRQAPGKGLEWIGIIETGGNLYYASWAKGRFSLSKTSTTVDLKITSPTAEDTATYFCVRGYPGYYTHTFNRLDLWGQGTLVTVSS
VL: AYDMTQTPASVEVAVGGTVTIKCQASESIANELSWYQRKSGQPPKLLIYRASTLASGVPSRFKGSGSGTQFTLTISGVECDDAATYYCQQGYTTINIDNLFGGGTEVVVK
- binding result (soluble mouse TNFR2): no binding
- EC50 [1]: 9.44 nM
- EC50 [2]: 4.04 nM
- EC50 [4]: 7.39 nM
- binding result [5]: binds

B3: humanized antibody h600_HB_28B7.3 (antibody, V domains shown)
VH: EVQLVESGGGLVQPGGSLRLSCAASGFSLNSHYMIWVRQAPGKGLEWVGIITSSDYIYYARWAKGRFTISRDNSKNTLYLQMNSLRAEDTAVYYCARYNYDDDGELFNLWGQGTLVTVSS
VL: DIQMTQSPSSLSASVGDRVTITCQSSQSIDANNDLAWYQQKPGKAPKLLIYLASKLASGVPSRFSGSGSGTDFTLTISSLQPEDFATYYCLGGYDDDADNTFGGGTKVEIK
notes: also called h600_23_28B7
- EC50 [6]: 0.28 nM
- IC50 [7]: 0.379 nM
- EC50 [8]: 0.211 nM
- Kd [9]: 0.13 nM
- EC50 [10]: 0.24 nM
- IC50 (TNFR-Fc [11]): 2.46 nM

B4: humanized antibody clone 25-31 (h600_24_31) (antibody, V domains shown)
VH: EVQLVESGGGLVQPGGSLRLSCAASGFSLSSYDMSWVRQAPGKGLEWVGYIWSSGSAYYATWAEGRFTISRDNSKNTLYLQMNSLRAEDTAVYYCARRYVGSSYDTWGQGTLVTVSS
VL: DIQMTQSPSSLSASVGDRVTITCQSSQSVSSNNYLSWYQQKPGKAPKLLIYAASYLASGVPSRFSGSGSGTDFTLTISSLQPEDFATYYCLGDYDNDIDHAFGGGTKVEIK
notes: its heavy-chain CDRs are those of rab600_25_31
- binding result [12]: binds
- EC50 [6]: 12.1 nM
- EC50 [8]: 1.86 nM
- Kd [9]: 12.1 nM
- EC50 [10]: 0.72 nM

B5: humanized antibody h600_24_124 (antibody, V domains shown)
VH: EVQLVESGGGLVQPGGSLRLSCAASGIDFSSYGISWVRQAPGKGLEWVAYIYPDYGSTDYATWVNGRFTISLDNSKNTLYLQMNSLRAEDTAVYYCASGYASSSGYYDPKYFGLWGQGTLVTVSS
VL: DIQMTQSPSSLSASVGDRVTITCRASEDIESYLAWYQQKPGKAPKLLIYDASDLASGVPSRFSGSGSGTDFTLTISSLQPEDFATYYCQHGFYTSRSDSVFGGGTKVEIK
- EC50 [6]: 0.408 nM
- IC50 [7]: 0.567 nM
- EC50 [8]: 0.058 nM
- Kd [9]: 0.291 nM
- EC50 [10]: 0.098 nM
- IC50 (TNFR-Fc [11]): 2.29 nM

B6: humanized antibody h600_24_2 (antibody, V domains shown)
VH: EVQLVESGGGLVQPGGSLRLSCAASGFSFSVSYWICWVRQAPGKGLEWVACTDGGDGSSYYASWVNGRFTISRDNSKNTLYLQMNSLRAEDTAVYYCARDRSDVFNLWGQGTLVTVSS
VL: DIQMTQSPSSLSASVGDRVTITCQAGQSIDSNLAWYQQKPGKAPKLLIYRASTLASGVPSRFSGSGSGTDFTLTISSLQPEDFATYYCQSFYVTISAMVDYPFGGGTKVEIK
- EC50 [6]: 0.377 nM
- IC50 [7]: 0.447 nM
- EC50 [8]: 0.131 nM
- Kd [9]: 0.245 nM
- EC50 [10]: 0.149 nM
- IC50 (TNFR-Fc [11]): 3.52 nM

B7: humanized antibody h600_HB_55F6.6 (antibody, V domains shown)
VH: EVQLVESGGGLVQPGGSLRLSCAASGFSFTNNYYMCWVRQAPGKGLEWVGCIYPSIVGPTYYANWAKGRFTISRDNSKNTLYLQMNSLRAEDTAVYYCVRDRYDDYGDYFNLWGQGTLVTVSS
VL: DIQMTQSPSSLSASVGDRVTITCQASQSIYNYLSWYQQKPGKAPKRLIYYASTLASGVPSRFSGSGSGTDFTLTISSLQPEDFATYYCQSNSGVNGNRYGNAFGGGTKVEIK
notes: also called 55F6.1
- EC50 [6]: 0.672 nM
- IC50 [7]: 0.566 nM
- EC50 [8]: 0.109 nM
- Kd [9]: 0.539 nM
- EC50 [10]: 0.131 nM
- IC50 (TNFR-Fc [11]): 3.81 nM

B8: humanized antibody h600_HB_11D7.1 (antibody, V domains shown)
VH: EVQLVESGGGLVQPGGSLRLSCAASGFDFSRYYMSWVRQAPGKGLEWVGYIDPIFGNTYYASWVNGRFTISSDNAKNSLYLQMNSLRAEDTAVYYCARDGDAGYDGYGYGTDLWGQGTLVTVSS
VL: DIQMTQSPSSLSASVGDRVTITCQASENIYSGLAWYQQKPGKVPKLLIVSAFTLASGVPSRFSGSGSGTDFTLTISSLQPEDVATYYCQTYYYGSVTYFNAFGGGTKVEIK
- binding result [12]: binds
- EC50 [6]: 0.239 nM
- IC50 [7]: 0.323 nM
- EC50 [8]: 0.054 nM
- Kd [9]: 0.201 nM
- EC50 [10]: 0.091 nM
- IC50 (TNFR-Fc [11]): 2.96 nM

B9: humanized antibody h600_25_9 (antibody, V domains shown)
VH: EVQLVESGGGLVQPGGSLRLSCAASGFSLSTYDINWVRQAPGKGLEWVGIIYTGGITNFANWAKGRFTISRDNSKNTLYLQMNSLRAEDTAVYYCARGGYDSEGYVYPDAFDPWGQGTLVTVSS
VL: DIQMTQSPSSLSASVGDRVTITCQASESISNLLAWYQQKPGKAPKLLIYRASILTSGVPSRFSGSGSGTDFTLTISSLQPEDFATYYCQHGYTGTNVQNVFGGGTKVEIK
- EC50 [6]: 0.587 nM
- IC50 [7]: 7.02 nM
- EC50 [8]: 0.046 nM
- Kd [9]: 0.387 nM
- EC50 [10]: 0.051 nM
- IC50 (TNFR-Fc [11]): 0.465 nM
